From PMC11255114 come the findings set out here.

Bounds are passed on as bounds.

For experiment [1], the target named is Bacillus subtilis Anti-TRAP protein (AT), mature (deformylated) (Bacillus subtilis). Nature of the experiment: AUC; sedimentation velocity, interference optics, 25 °C, 50,000 rpm; 50 mM sodium phosphate, 100 mM NaCl, 0.5 mM tryptophan, 0.02 % NaN3, pH 7 to 8; 65-500 µM AT monomer; global fit in SEDPHAT to a three-state model, 4 AT3 to 2 AT6 to AT12; apparent rate constants, KD from their ratio.

In experiment [2] the target is N-formylmethionine Anti-TRAP (fAT), trimer fAT3 none (N-terminal formylation of Met1) (UniProt O31466). As to the kind of experiment: Small-angle X-ray scattering (SIBYLS beamline, ALS). The note with it: pH 8, 100 mM NaCl, 50 mM sodium-phosphate.
Experiment [3] has as its target Anti-TRAP (AT), mature deformylated form, trimer AT3 (assembly unit) (UniProt O31466+O31466). As to the kind of experiment: Sedimentation velocity analytical ultracentrifugation (interference optics, 50,000 rpm). The note with it: pH 8; 25 °C; 100 mM NaCl plus 50 mM sodium phosphate; 50 mM sodium phosphate at pH 7, 7.25, 7.5 and 8 (Fig. 4 caption also lists pH 7.75).

Experiment [4] concerns the target N-terminal formylmethionine Anti-TRAP (fAT) of Bacillus subtilis (Bacillus subtilis). As to the kind of experiment: NMR solution structure; fAT3, data at 55 °C; NOEs, torsion angles, RDCs, three-fold symmetry and SAXS restraints; homo-trimer.
Experiment [5] has the same target. As to the kind of experiment: SAXS; fAT at 1, 2, 3.3, 5 and 10 mg/mL in 50 mM sodium phosphate pH 8, 100 mM NaCl, 200 µM ZnCl2, 1 mM TCEP; SIBYLS beamline; deconvolution into trimer and dodecamer.
Experiment [6] has the same target. Nature of the experiment: NMR spectra (1H-15N HSQC); 3 mM fAT in 20 mM d11-Tris pH 7.5, 20 mM β-mercaptoethanol, 1 mM ZnCl2; also a pH series 6.5 to 8.0 at 25 °C; step looked at for non-binding: trimers to dodecamer.

A word on the stoichiometry N: it is the number of molecules, sites or subunits per partner or assembly. Regarding “Bacillus subtilis Anti-TRAP protein (AT), mature (deformylated) (natural protein)”, in experiment [1], the KD of the first step (two AT3 to AT6) is 20 to 90 µM and the stoichiometry N was 6.
Regarding “N-formylmethionine Anti-TRAP (fAT), trimer fAT3 none (N-terminal formylation of Met1)”, the “fraction of dodecamer in fAT by SAXS deconvolution” value in experiment [2] is recorded as under 3% at 10 mg/mL.
As to “Anti-TRAP (AT), mature deformylated form, trimer AT3 (assembly unit)”, in experiment [3], the “equilibrium (dissociation) constant, step 2 (2 AT6 <-> AT12)” value was 0.05 to 50 µM (upper end of range).
With “N-terminal formylmethionine Anti-TRAP (fAT) of Bacillus subtilis (natural protein)”, the stoichiometry N in experiment [4] and in experiment [6] was 3 throughout. The substance also came in with a percent dodecamer in experiment [5] of under 3%.
